Source: patent US20220177587A1, “METHODS AND USES OF VARIANT CD80 FUSION PROTEINS AND RELATED CONSTRUCTS” (Alpine Immune Sciences, Inc., priority 2018, published 2022)
Positions count from the first letter of the chain named. Names and notes keep the numbering of the source.

B1: D46V/M47I/A71G (protein)
chain: VIHVTKEVKEVATLSCGHNVSVEELAQTRIYWQKEKKMVLTMMSGVINIWPEYKNRTIFDITNNLSIVILGLRPSDEGTYECVVLKYEKDAFKREHLAEVTLSVKAD
B2: E35D/M47L/A71G/L85M (protein)
chain: B1 chain with E35D, V46D, I47L, L85M
B3: E35D/M47V (protein)
chain: B1 chain with E35D, V46D, I47V, G71A
B4: V22A/E35D/M47L/A71G (protein)
chain: B1 chain with V22A, E35D, V46D, I47L
B5: H18Y/E35D/M47L/A71G/A91S (protein)
chain: B1 chain with H18Y, E35D, V46D, I47L, A91S
B6: M43I/M47L/A71G (protein)
chain: B1 chain with M43I, V46D, I47L
B7: M47I/A71G (protein)
chain: B1 chain with V46D
B8: E35D/M47I/N48K/I61F (protein)
chain: B1 chain with E35D, V46D, N48K, I61F, G71A
B9: E35D/M43I/D46E/A71G/L85M (protein)
chain: B1 chain with E35D, M43I, V46E, I47M, L85M
B10: E35D/V68M/A71G/D90G (protein)
chain: B1 chain with E35D, V46D, I47M, V68M, D90G
B11: A26P/E35D/M47I/V68M/A71G/D90G (protein, UniProt P33681 35-288, looked up, variant A26P E35D M47I V68M A71G D90G)
T-lymphocyte activation …: VIHVTKEVKEVATLSCGHNVSVEELPQTRIYWQKDKKMVLTMMSGDINIWPEYKNRTIFDITNNLSIMILGLRPSDEGTYECVVLKYEKGAFKREHLAEVTLSVKADFPTPSISDFEIPTSNIRRIICSTSGGFPEPHLSWLENGEELNAINTTVSQDPETELYAVSSKLDFNMTTNHSFMCLIKYGHLRVNQTFNWNTTKQEHFPDNLLPSWAITLISVNGIFVICCLTYCFAPRCRERRRNERLRRESVRPV
B12: H18F/A26P/E35D/M47I/V68M/A71G/D90G (protein, UniProt P33681 35-288, looked up, variant H18F A26P E35D M47I V68M A71G D90G)
T-lymphocyte activation …: B11 T-lymphocyte activation … with H18F

The molecules below were run against T1, CD28 (Homo sapiens, UniProt P10747) (assay: Flow binding to Jurkat/IL2 reporter cells (CD28)). Settings: Table E10; 33.3 nM; Jurkats (CD28).
Design: host or cells: Jurkat cells expressing an IL-2-luciferase reporter
Procedure, shortened: (§1)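 Fusion proteins bound to CHO cells stably expressing CTLA4 or PD-L1, or to Jurkat/IL2 reporter cells with endogenous CD28, for 45 min on ice after blocking in PBS/1% BSA. Detection with PE anti-human Fc by flow cytometry; PE MFI per cell type and binding EC50 determined.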

Molecule | CD28 MFI at 33.3 nM
B1 | 1325
B2 | 199
B3 | 461
B4 | 990
B5 | 528
B6 | 1000
B7 | 823
B8 | 816
B9 | 200

Same assay, conditions: Table E10; 33.3 nM; relative to CD80 WT IgV-Fc

Molecule | CD28 Fold change to WT CD80
B1 | 20.1
B2 | 3.0
B3 | 7.0
B4 | 15.0
B5 | 8.0
B6 | 15.2
B7 | 12.5
B8 | 12.4
B9 | 3.0

Same assay, conditions: Table E19; Jurkats (CD28); 33.3 nM

Molecule | CD28 MFI at 33.3 nM
B3 | 501

Same assay, conditions: Table E19; MFI at 33.3 nM relative to WT CD80 ECD-Fc (Abcam)

Molecule | CD28 Fold change to WT CD80
B3 | 0.7 fold

Same assay, conditions: Table E20; Jurkats (CD28); 33.3 nM

Molecule | CD28 MFI at 33.3 nM
B10 | 2843

Same assay, conditions: Table E23; CD80 IgV-Fc (inert) at 33.3 nM; Jurkat (CD28)

Molecule | CD28 MFI at 33.3 nM
B11 | 8189
B12 | 4801

Each molecule was assayed against T1, CD28 (assay: Jurkat/IL2 + CHO/OKT3 +/- PD-L1 reporter assay: PD-L1-dependent CD28 costimulation). Settings: Table E12; Jurkat/IL2 + CHO/OKT3/PD-L1; 5.0 nM.
Assay type: cell-based
Design: host or cells: Jurkat cells expressing an IL-2-luciferase reporter
Procedure, shortened: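 Jurkat reporter cells (100,000/well) preincubated 15 min at room temperature with test protein, then cocultured 5 h at 37 °C with CHO aAPCs bearing anti-CD3 scFv (OKT3) with or without PD-L1. Luciferase luminescence (RLU) read after lysis-substrate addition.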

Molecule | Fold Increase over WT CD80-IgV-Fe | Relative Luciferase Units (RLU), CD80 Cone 5.0 nM
B1 | 4.0 | 1601 RLU
B2 | 3.8 | 1513 RLU
B3 | 3.4 | 1353 RLU
B4 | 6.5 | 2583 RLU
B5 | 4.7 | 1898 RLU
B6 | 4.1 | 1641 RLU
B7 | 4.4 | 1762 RLU
B8 | 5.2 | 2078 RLU
B9 | 3.7 | 1475 RLU

Same assay, conditions: Table E21; Jurkat/IL2 + CHO/OKT3/PD-L1; 5.0 nM

Molecule | Fold Increase over WT CD80-IgV-Fe
B3 | 4.7 fold

Same assay, conditions: Table E21; Jurkat/IL2 + CHO/OKT3/PD-L1; CD80 Conc 5.0 nM

Molecule | Relative Luciferase Units (RLU), CD80 Conc 5.0 nM
B3 | 543 RLU

Same assay, conditions: Table E22; Jurkat/IL2 + CHO/OKT3/PD-L1; CD80 Conc 5.0 nM

Molecule | Relative Luciferase Units (RLU), CD80 Conc 5.0 nM
B10 | 990 RLU

Same assay, conditions: Table E24; Jurkat/IL2 + CHO/OKT3/PD-L1; 5.0 nM

Molecule | Relative Luciferase Units (RLU), CD80 Conc 5.0 nM
B11 | 823 RLU
B12 | 926 RLU

These molecules were tested against huCTLA4 (Homo sapiens, UniProt P16410) (assay: Flow binding to CHO cells stably expressing CTLA4). Settings: Table E10; 33.3 nM; CHO cells stably expressing CTLA4.
Sequence of huCTLA4 (P16410 36-223): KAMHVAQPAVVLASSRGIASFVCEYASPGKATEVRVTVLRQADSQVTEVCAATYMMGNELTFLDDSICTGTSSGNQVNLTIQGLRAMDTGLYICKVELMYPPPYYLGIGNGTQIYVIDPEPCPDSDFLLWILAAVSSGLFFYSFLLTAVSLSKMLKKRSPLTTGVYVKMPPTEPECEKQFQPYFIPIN
Design: huCTLA4 and huPD-L1, full-length mammalian surface expression constructs were generated; expressed in transfected cells; host or cells: CHO cells, lentiviral transduction, sorted to >98% purity
Procedure, shortened: as §1

Molecule | CTLA4 MFI at 33.3 nM
B1 | 28420
B2 | 16609
B3 | 20893
B4 | 21855
B5 | 24218
B6 | 23292
B7 | 27768
B8 | 25859
B9 | 26878

Same assay, conditions: Table E10; 33.3 nM; relative to CD80 WT IgV-Fc

Molecule | CTLA4 Fold change to WT CD80
B1 | 14.8
B2 | 8.7
B3 | 10.9
B4 | 11.4
B5 | 12.6
B6 | 12.2
B7 | 14.5
B8 | 13.5
B9 | 14.0

Same assay, conditions: Table E19; CHO cells stably expressing CTLA4; 33.3 nM

Molecule | CTLA4 MFI at 33.3 nM
B3 | 44569

Same assay, conditions: Table E19; MFI at 33.3 nM relative to WT CD80 ECD-Fc (Abcam)

Molecule | CTLA4 Fold change to WT CD80
B3 | 1.1 fold

Same assay, conditions: Table E20; CHO cells stably expressing CTLA4; 33.3 nM

Molecule | CTLA4 MFI at 33.3 nM
B10 | 23290

Same assay, conditions: Table E23; CD80 IgV-Fc (inert) at 33.3 nM; CHO cells stably expressing CTLA4

Molecule | CTLA4 MFI at 33.3 nM
B11 | 19761
B12 | 23932

Each molecule was assayed against huPD-L1 (Homo sapiens, UniProt Q9NZQ7) (assay: Flow binding to CHO cells stably expressing PD-L1). Settings: Table E10; 33.3 nM; CHO cells stably expressing PD-L1.
Sequence of huPD-L1 (Q9NZQ7 19-290): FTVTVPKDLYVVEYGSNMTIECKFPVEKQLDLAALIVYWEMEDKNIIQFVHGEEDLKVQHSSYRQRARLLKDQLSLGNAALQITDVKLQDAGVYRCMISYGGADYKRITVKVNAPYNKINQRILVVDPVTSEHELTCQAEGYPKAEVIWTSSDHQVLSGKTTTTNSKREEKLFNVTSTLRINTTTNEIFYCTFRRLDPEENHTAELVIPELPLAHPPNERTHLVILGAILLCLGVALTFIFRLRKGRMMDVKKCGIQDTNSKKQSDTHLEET
Design: huCTLA4 and huPD-L1, full-length mammalian surface expression constructs were generated; expressed in transfected cells; host or cells: CHO cells, lentiviral transduction, sorted to >98% purity
Procedure, shortened: as §1

Molecule | PD-L1 MFI at 33.3 nM
B1 | 7328
B2 | 8312
B3 | 2935
B4 | 8168
B5 | 7582
B6 | 7763
B7 | 5097
B8 | 5627
B9 | 7138

Same assay, conditions: Table E10; 33.3 nM; relative to CD80 WT IgV-Fc

Molecule | PD-L1 Fold change to WT CD80
B1 | 104.2
B2 | 118.2
B3 | 41.7
B4 | 116.2
B5 | 107.9
B6 | 110.4
B7 | 72.5
B8 | 80.0
B9 | 101.5

Same assay, conditions: Table E10; binding to PD-L1 compared to binding to CD28

Molecule | Ratio of PDL1:CD28
B1 | 6
B2 | 42
B3 | 6
B4 | 8
B5 | 14
B6 | 8
B7 | 6
B8 | 7
B9 | 36

Same assay, conditions: Table E19; CHO cells stably expressing PD-L1; 33.3 nM

Molecule | PD-L1 MFI at 33.3 nM
B3 | 6796

Same assay, conditions: Table E19; MFI at 33.3 nM relative to WT CD80 ECD-Fc (Abcam)

Molecule | PD-L1 Fold change to WT CD80
B3 | 53.1 fold

Same assay, conditions: Table E19; ratio of MFI at 33.3 nM

Molecule | Ratio of PDL1:CD28
B3 | 13.6
